By Ki is commonly meant a dissociation constant, usually derived from enzyme kinetics or from competition with a known ligand.

Numbered stars: 1 amine (or outer) side, 2 acyl side, 3 side chain; on linkers, the order of the positions; unused ones are H or OH. Bridge positions count the residues as written; N and C are the ends. Square brackets hold non-standard residues; d marks the D form. Peptide text beside a SMILES is read from it. Glu(cHx) = L-glutamic acid cyclohexyl ester, O=C(CC[C@H](N[*:1])C(=O)[*:2])OC1CCCCC1; Pro(4S-SH) = O=C([C@@H]1C[C@H](S[*:3])CN1[*:1])[*:2]; Trp(6-Cl) = N[C@@H](Cc1c[nH]c2cc(Cl)ccc12)C(=O)O; Cha = N[C@@H](CC1CCCCC1)C(=O)O; Orn = NCCC[C@H](N)C(=O)O

One test concerns the target T1, NCoA-1 (Homo sapiens, UniProt Q15788).
T1 sequence (Q15788 257-385 limits assumed): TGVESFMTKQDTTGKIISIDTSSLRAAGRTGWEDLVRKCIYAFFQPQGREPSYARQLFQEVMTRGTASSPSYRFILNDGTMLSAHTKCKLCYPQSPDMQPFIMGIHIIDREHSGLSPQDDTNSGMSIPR
Put plainly: Competition fluorescence polarization assay: NCoA-1 binding affinities of peptides (STAT6/NCoA-1 interaction). The settings on record: competition with FluoSTAT6 (200 nM), NCoA-1 1 μM; Ki calculated from IC50; read-out: Ki [μM], peptide binding to NCoA-1. On the procedure: 2.4. Fluorescence Polarization Assay: NCoA-1 Binding Affinities of Peptides
The mixtures were shaken thoroughly. Fluorescence polarization was measured on a SPECTRAmax M5 spectrometer (Molecular device) following 5-30 min incubation at room temperature. FluoSTAT6 was excited at 490 nm and emission polarization was detected at 525 nm. 40 intensity measurements were collected for each well, 20 at horizontal position of the dynamic polarizer, 20 at parallel position. As the fraction of FluoSTAT6 bound to NCoA-1 is correlated to the fluorescence polarization (FP), after normalization, the fraction of bound FluoSTAT6 (B) was determined, and the KD was calculated according to B=[(1+P/R+KD/R)−((1+P/R+KD/R)^2−4P/R)^0.5]/2, wherein P is the total probe concentration, R the total protein concentration and KD the dissociation constant (M. H. Roehrl, J. Y. Wang, G. Wagner, Biochemistry 2004, 3, 16056).
The mixture was completed by a HEPES buffer solution of NCoA-1 (1 μM final concentration) and processed as described above. STAT6Y (C-terminal tyrosine extended STAT6 794-814 peptide) was used as a positive control. As the total fluorescence intensity of FluoSTAT6 remains similar for all samples, the fraction of peptide bound to NCoA-1 is correlated to the fluorescence polarization.
Following normalization data were fitted with IGORpro Software® (WaveMetrics, Lake Oswego, Oreg., USA) to a sigmoid equation to determine IC50 values. The Ki values were calculated from IC50 values according to the method described by Nikolovska-Coleska et al. Anal. Biochem., 2004, 332, 261).

The next test concerns the target T2, human UTR2 receptor (human, UniProt Q9UKP6 1-389).
T2 sequence (looked up): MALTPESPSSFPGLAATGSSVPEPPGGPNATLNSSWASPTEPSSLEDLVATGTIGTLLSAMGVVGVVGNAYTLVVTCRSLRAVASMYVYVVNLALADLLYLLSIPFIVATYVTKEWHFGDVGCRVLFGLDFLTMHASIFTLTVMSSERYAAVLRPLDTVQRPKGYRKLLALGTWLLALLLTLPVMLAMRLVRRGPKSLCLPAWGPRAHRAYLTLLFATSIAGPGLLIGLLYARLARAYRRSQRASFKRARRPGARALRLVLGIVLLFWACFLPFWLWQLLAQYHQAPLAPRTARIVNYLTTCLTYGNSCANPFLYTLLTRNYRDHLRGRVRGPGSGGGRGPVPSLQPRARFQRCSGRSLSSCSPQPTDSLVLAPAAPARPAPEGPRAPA
Put plainly: cell-based or functional assay.

For `CC[C@H](C)[C@@H]1NC(=O)[C@H](CCC(=O)O)NC(=O)[C@H](Cc2c[nH]c3ccccc23)NC(=O)[C@H](C)NC(=O)[C@H](CC(C)C)NC(=O)[C@H](Cc2c[nH]c3ccccc23)NC(=O)[C@H](CCC(=O)O)NC(=O)[C@H](Cc2ccccc2)NC(=O)[C@@H]2CCCN2C(=O)[C@H]2CCCN2C1=O` [compound 10] (cyclo(FEWLAWEI[dP]P)), on NCoA-1, the Ki was 3.1 µM.
The same measure, in the same setting: with “backbone-cyclized β-hairpin peptidomimetic; P1-P8 Phe-Glu-Trp-Leu-Ala-Trp-Glu-Glu(cHx), template DPro-LPro (cyclo(FEWLAWE[Glu(cHx)][dP]P); SMILES CC(C)C[C@@H]1NC(=O)[C@H](Cc2c[nH]c3ccccc23)NC(=O)[C@H](CCC(=O)O)NC(=O)[C@H](Cc2ccccc2)NC(=O)[C@@H]2CCCN2C(=O)[C@H]2CCCN2C(=O)[C@H](CCC(=O)OC2CCCCC2)NC(=O)[C@H](CCC(=O)O)NC(=O)[C@H](Cc2c[nH]c3ccccc23)NC(=O)[C@H](C)NC1=O) [compound 9]” the figure was 1.5 µM; with `C[C@@H]1NC(=O)[C@H](CS)NC(=O)[C@H](Cc2c[nH]c3cc(Cl)ccc23)NC(=O)[C@H](CCC(=O)O)NC(=O)[C@H](Cc2ccccc2)NC(=O)[C@@H]2CCCN2C(=O)[C@H]2CCCN2C(=O)[C@H](Cc2ccccc2)NC(=O)[C@H](CCC(=O)O)NC(=O)[C@H](Cc2c[nH]c3ccccc23)NC1=O` [compound 15] (cyclo(FE[Trp(6-Cl)]CAWEF[dP]P)), 3.1 µM.
Take “backbone-cyclized β-hairpin peptidomimetic; P1-P8 Phe-Thr-Trp(6Cl)-Leu-Ala-Trp-Glu-Phe, template DPro-L4Mp1 (cyclo(FT[Trp(6-Cl)]LAWEF[dP][Pro(4S-SH)]); SMILES CC(C)C[C@@H]1NC(=O)[C@H](Cc2c[nH]c3cc(Cl)ccc23)NC(=O)[C@H]([C@@H](C)O)NC(=O)[C@H](Cc2ccccc2)NC(=O)[C@@H]2C[C@H](S)CN2C(=O)[C@H]2CCCN2C(=O)[C@H](Cc2ccccc2)NC(=O)[C@H](CCC(=O)O)NC(=O)[C@H](Cc2c[nH]c3ccccc23)NC(=O)[C@H](C)NC1=O) [compound 5]”: the Ki in the test with NCoA-1 is 3.8 µM.

B1: Ex. 32 (peptide)
peptide: cyclo(DCF[dW][Orn]YCV[dP]P)
modifications: disulfide 2-7
SMILES: CC(C)[C@@H]1NC(=O)[C@@H]2CSSC[C@H](NC(=O)[C@H](CC(=O)O)NC(=O)[C@@H]3CCCN3C(=O)[C@H]3CCCN3C1=O)C(=O)N[C@@H](Cc1ccccc1)C(=O)N[C@H](Cc1c[nH]c3ccccc13)C(=O)N[C@@H](CCCN)C(=O)N[C@@H](Cc1ccc(O)cc1)C(=O)N2
Take B1: the “IC50% (Ca2+ assay, antagonist activity; compound added prior to urotensin)” value with human UTR2 receptor is 0.03 nM.

B2: Ex. 35 (peptide)
peptide: cyclo(DCFWKYC[Cha][dP]P)
modifications: disulfide 2-7
SMILES: NCCCC[C@@H]1NC(=O)[C@H](Cc2c[nH]c3ccccc23)NC(=O)[C@H](Cc2ccccc2)NC(=O)[C@@H]2CSSC[C@H](NC(=O)[C@H](Cc3ccc(O)cc3)NC1=O)C(=O)N[C@@H](CC1CCCCC1)C(=O)N1CCC[C@@H]1C(=O)N1CCC[C@H]1C(=O)N[C@@H](CC(=O)O)C(=O)N2
On to B2, for which the “IC50% (Ca2+ assay, antagonist activity; compound added prior to urotensin)” value in the test with human UTR2 receptor came to 0.2 nM.
